From patent US20240075137A1 come the findings set out here.

For test [1], the target named is mPVR (recombinant protein) (mouse). Description: SPR/ELISA with recombinant proteins. On the technique in general: ELISA stands for enzyme-linked immunosorbent assay.
Test [2] deals with mPVRL2 HIS (mouse) (UniProt P32507). Description: ELISA: mPVRIG-mFc titrated on mPVRL2.
Test [3] has the same target. Kind of test: ELISA: soluble receptor Fc titrated on immobilized mPVRL2 HIS.
The target of test [4] is human TIGIT on cells (human) (UniProt Q495A1). Kind of test: FACS, Expi293 human TIGIT over-expressing cells. A general note: A flow cytometer gives signals particle by particle.
The target is the same in test [5]. Description: FACS titration on Expi293 human TIGIT over-expressing cells (gMFI OE:Parental); ± 95% CI; 'Fit: Fair/Good'.
For test [6] the target is unchanged. Description: FACS blocking: Expi293 human TIGIT cells pre-incubated with mAb, then human PVR-m2aFc; lower gMFI = more blocking.

human TIGIT on cells (human), sequence (Q495A1 22-141): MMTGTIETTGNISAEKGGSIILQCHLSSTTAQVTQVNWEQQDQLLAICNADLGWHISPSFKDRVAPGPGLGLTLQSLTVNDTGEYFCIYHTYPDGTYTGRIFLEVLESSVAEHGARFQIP
mPVRL2 HIS (mouse), sequence (P32507 32-351 limits assumed): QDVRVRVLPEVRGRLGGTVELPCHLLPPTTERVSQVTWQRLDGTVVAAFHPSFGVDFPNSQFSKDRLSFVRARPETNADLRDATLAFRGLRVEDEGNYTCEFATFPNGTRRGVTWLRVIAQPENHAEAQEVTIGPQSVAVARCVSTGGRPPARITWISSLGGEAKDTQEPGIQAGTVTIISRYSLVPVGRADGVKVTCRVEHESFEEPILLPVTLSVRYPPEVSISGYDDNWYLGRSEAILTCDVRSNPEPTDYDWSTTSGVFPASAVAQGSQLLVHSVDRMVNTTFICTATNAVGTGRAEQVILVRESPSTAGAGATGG

A word on the EC50 (read off the curve): it is the concentration that produces a half-maximal response. Low values mean higher potency in that assay, high ones lower potency in that assay. Turning to mouse PVRIG-Fc fusion protein, the fold lower affinity than the interaction with mPVRL2 in test [1] came out at 10 fold. The EC50 (read off the curve) in test [2] and in test [3] was 2 nM each time.

The EC90 is the concentration needed for an effect of 90%. The low end stands for an effect from little substance, the high end for a need for much substance. The term Kd denotes the free concentration of one partner at which half of the binding sites on the other are occupied at equilibrium, for simple one-to-one binding. In the case of “human PVR-m2aFc (Compugen) (from UniProt P15151 21-343) (Fc fusion)”, the EC90 in test [4] was found to be 158 nM. In test [5], the dissociation constant (Kd) was determined as 8.48 nM.

With Synagis hIgG4 (antibody), in test [6], the gMFI of bound PVR-m2aFc at 266 pM mAb worked out at 959, the gMFI of bound PVR-m2aFc at 1.3 nM mAb worked out at 964 and the gMFI of bound PVR-m2aFc at 6.7 nM mAb is 828.
